B1: MPT26 (protein)
chain: MSDNSIATKILNFGHTCWKLQRPYVVKGMISIACGLFGKELLHNTNLISWGLMWKAFFALVPILSFNFFAAIMNQIYDVDIDRINKPDLPLVSGEMSIETAWILSIIVALTGLIVTIKLKSAPLFVFIYIFGIFAGFAYSVPPIRWKQNPSTNFLITISSHVGLAFTSYSATTSALGLPFVWRPAFSFIIAFMTVMGMTIAFAKDISDIEGDAKYGVSTVATKLGARNMTFVVSGVLLLNYVAAILAGIIWPQAFNSNVMLLSHAILAFWLILQTRDFALTNYDPEAGRRFFEFIWLLYYAEYFVYVFI
modifications: MPT26 (recombinant membrane-bound prenyltransferase)
B2: MPT31 (protein)
chain: MSDNSIATKILNFGHACWKLQRPYVVKGMISIACGLFGRELLHNTNLISWGLMWKAFFALVPILSFNFFAAIMNQIYDLHIDRINKPDLPLASGEISVNTAWIMSIIVALTGLIVTIKLKSAPLFVFIYIFGIFAGFAYSVPPIRWKQNPSTNFLITISSHVGLAFTSYYASRAALGLPFELRPSFTFLLAFMTVMGMTIAFAKDISDIEGDAKYGVSTVATKLGARNMTFVVSGVLLLNYLVSISIGIIWPQVFKSNIMILSHAILAFWLILQTRDFALTNYDPEAGRRFFEFIWLLYYAEYLVYVFI
modifications: MPT31 (recombinant membrane-bound prenyltransferase)
B3: MPT21 (protein)
chain: MSDNSIATKILNFGHTCWKLQRPYVVKGMISIACGLFGKELLHNTNLISWGLMWKAFFALVPILSFNFFAAIMNQIYDVDIDRINKPDLPLVSGEMSIETAWILSIIVALTGLIVTIKLKSAPLFVFIYIFGIFAGFAYSVPPIRWKQNPSTNFLITISSHVGLAFTSYYASRAALGLPFELRPSFTFLLAFMTVMGMTIAFAKDISDIEGDAKYGVSTVATKLGARNMTFVVSGVLLLNYVAAILAGIIWPQAFNSNVMLLSHAILAFCLIFQTRELALANYASAPSRQFFEFIWLLYYAEYFVYVFI
modifications: MPT21 (recombinant membrane-bound prenyltransferase)
B4: GPS3-F11-MPT4: fusion protein, SEQ ID NO: 20 (protein)
chain: MQLLNPPQKGKKAVEFDFNKYMDSKAMTVNEALNKAIPLRYPQKIYESMRYSLLAGGKRVRPVLCIAACELVGGTEELAIPTACAIEMIHTMSLMHDDLPCIDNDDLRRGKPTNHKIFGEDTAVTAGNALHSYAFEHIAVSTSKTVGADRILRMVSELGRATGSEGVMGGQMVDIASEGDPSIDLQTLEWIHIHKTAMLLECSVVCGAIIGGASEIVIERARRYARCVGLLFQVVDDILDVTKSSDELGKTAGKDLISDKATYPKLMGLEKAKEFSDELLNRAKGELSCFDPVKAAPLLGLADYVAFRQNGGAEAAAKEAAAKAGGSGGGSGGGGSGGSGGGGSGGGGSMSDNSIATKILNFGHTCWKLQRPYVVKGMISIACGLFGRELFNNRHLFSWGLMWKAFFALVPILSFNFFAAIMNQIYDVDIDRINKPDLPLVSGEMSIETAWILSIIVALTGLIVTIKLKSAPLFVFIYIFGIFAGFAYSVPPIRWKQYPFTNFLITISSHVGLAFTSYSATTSALGLPFVWRPAFSFIIAFMTVMGMTIAFAKDISDIEGDAKYGVSTVATKLGARNMTFVVSGVLLLNYLVSISIGIIWPQVFKSNIMILSHAILAFCLIFQTRELALANYASAPSRQFFEFIWLLYYAEYFVYVFI
modifications: GPS3-F11-MPT4, geranyl diphosphate synthase, membrane-bound prenyltransferase fusion protein
B5: GPS2-F11-MPT4: fusion protein, SEQ ID NO: 21 (protein)
chain: MKDVSLSSFDAHDLDLDKFPEVVRDRLTQFLDAQELTIADIGAPVTDAVAHLRSFVLNGGKRIRPLYAWAGFLAAQGHKNSSEKLESVLDAAASLEFIQACALIHDDIIDSSDTRRGAPTVHRAVEADHRANNFEGDPEHFGVSVSILAGDMALVWAEDMLQDSGLSAEALARTRDAWRGMRTEVIGGQLLDIYLESHANESVELADSVNRFKTAAYTIARPLHLGASIAGGSPQLIDALLHYGHDIGIAFQLRDDLLGVFGDPAITGKPAGDDIREGKRTVLLALALQRADKQSPEAATAIRAGVGKVTSPEDIAVITEHIRATGAEEEVEQRISQLTESGLAHLDDVDIPDEVRAQLRALAIRSTERRMGGAEAAAKEAAAKAGGSGGGSGGGGSGGSGGGGSGGGGSMSDNSIATKILNFGHTCWKLQRPYVVKGMISIACGLFGRELFNNRHLFSWGLMWKAFFALVPILSFNFFAAIMNQIYDVDIDRINKPDLPLVSGEMSIETAWILSIIVALTGLIVTIKLKSAPLFVFIYIFGIFAGFAYSVPPIRWKQYPFTNFLITISSHVGLAFTSYSATTSALGLPFVWRPAFSFIIAFMTVMGMTIAFAKDISDIEGDAKYGVSTVATKLGARNMTFVVSGVLLLNYLVSISIGIIWPQVFKSNIMILSHAILAFCLIFQTRELALANYASAPSRQFFEFIWLLYYAEYFVYVFI
modifications: GPS2-F11-MPT4, geranyl diphosphate synthase, membrane-bound prenyltransferase fusion protein

How the values were obtained:
[1] = tested on: olivetolic acid; assay: MPT fusions with GPS1.1 vs unfused MPTs, OA feed (Example 8, Table 9); format: cell-based, Yarrowia; conditions: 2 mM olivetolic acid, 48 h quench; for CBGA / FCBGA: 2% glucose, strain sCL-SE-0128; for CBGA/FCBGA: product ratio
Protocol: (§1) As described below, plasmids pCL-SE-0406, pCL-SE-0664, pCL-SE-0663, pCL-SE-0662, pCL-SE-0380 (MPT4), pCL-SE-0337.MPT21, pCL-SE-0337.MPT26, and pCL-SE-0337.MPT31 were transformed into strain sCL-SE-0128. Multiple colonies per transformation were precultured for 48 h in YNB containing glucose (2%), casamino acids (0.5%), and MES (100 mM pH 6.5). Pre-culture was used to inoculate assay medium comprised of YNB containing glucose (2%), casamino acids (0.5%), MES (100 mM pH 6.5), and olivetolic acid (2 mM). Cultures were quenched with equal volume of ethanol after 48 h total growth and assayed for CBGA and FCBGA. Averages and standard deviations were calculated from replicates.
(§2) Overnight YPD (10 g/L yeast extract, 20 g/L peptone, 2% dextrose) cultures were inoculated from glycerol stocks of the appropriate strain and grown at 30° C. with 250 rpm shaking. Once cultures had reached an OD600 of 4-6, cultures were centrifuged at 500×g for 5 min, supernatants were discarded, and cell pellets were resuspended in equal volume of water. Resuspended cells were centrifuged at 500×g for 5 min, supernatants were discarded, and cells were resuspended in a volume (75 μL×OD×Vculture) of transformation cocktail (45% PEG-400, 0.1 M LiAc, 0.1 M DTT, and 25 ug/100 μL SS Salmon Sperm DNA). For each transformation, >1 μg of plasmid DNA was added to 55 μL cells/transformation cocktail and vortexed for 2 s. Transformations were incubated at 39° C. for 1 h with 250 rpm shaking. Transformations were resuspended in 750 μL YPD with 1 M sorbitol and recovered at 30° C. overnight with 250 rpm shaking. The next day, transformations were centrifuged at 500×g for 5 min, supernatants were discarded, and cell pellets were resuspended in 750 YPD. Resuspended transformations were plated on YPD with appropriate selection or YNBD (6.71 g/L yeast nitrogen base+nitrogen, 0.5% casamino acids, 2% dextrose) agar plates and grown at 30° C. for 2 days. Individual colonies were patched onto YPD plates with appropriate selection or YNBD plates and grown at 30° C. overnight. Patches were used to inoculate 0.5 mL YPD with appropriate selection or YNBD precultures in 96 w blocks and grown at 30° C. for 24-48 h with 1000 rpm shaking. For assays, 0.5 mL YPD with appropriate selection or YNBD cultures containing substrate were inoculated with 2 μL from precultures and grown at 30° C. for 2-4 days with 1000 rpm shaking with 2% glucose added every 24 h. Assay cultures were quenched by addition of 0.5 mL ethanol with 0.2% formic acid and 0.5 mg/mL pentyl-benzoic acid. Precipitates were pelleted by centrifuging at 4600×g for 10 min and then 200 μL was transferred to fresh plates, sealed, and analyzed via HPLC.
(§3) All samples were quenched with equal volume of EtOH containing 0.2 mg/mL internal standard (3,5-Diisopropyl-2-hydroxybenzoic acid CAS #2215-21-6) centrifuged, and clarified solutions were analyzed by HPLC-MS
(§4) • Column: 2.1×50 mm COSMOCORE PBr (Nacalai USA, Inc.) • Mobile Phase: A; 0.1% formic acid in water, B; 0.1% formic acid in acetonitrile • Flow: 0.45 mL/min • Temp: % 50 Celsius • Gradient: 20%B at 0 min, 70%B at 2.3 min, 89% B at 4.2 min, 20% B at 4.3 min, 20%B at 6 min

[2] = tested on: olivetolic acid; assay: Screening of MPT library hits in Yarrowia, OA feed (Example 2); format: cell-based; conditions: OA Feed (48 h); for CBGA: 2 mM olivetolic acid, minimal media, 0.5% ethanol, strain sCL-SE-0128, product accumulated; for CBGA/FCBGA: product ratio
Protocol: (§5) As described in detail below, plasmid pCL-SE-0337.MPT21,26,31 were transformed into strain sCL-SE-0128 and 4 separate colonies of each were patched and precultured for 48 h. Assay cultures consisted of minimal media with 100 mM MES pH 6.5, 0.5% ethanol and 2 mM olivetolic or divarinic acid (DVA). Cultures with olivetolic acid were quenched with equal volume of ethanol after 48 h total growth while cultures with DVA with quenched after 96 h total growth. Enzymes produced CBGA and FCBGA from olivetolic acid and CBGVA and FCBGVA from DVA. Averages and standard deviations were calculated from replicates.
as §2, §3, §4

[3] = tested on: divarinic acid (DVA); assay: Screening of MPT library hits in Yarrowia, DVA feed (Example 2); format: cell-based; conditions: DVA Feed (96 h); for CBGVA: 2 mM DVA, minimal media, 0.5% ethanol, strain sCL-SE-0128, product accumulated; for CBGVA/FCBGVA: product ratio
Protocol: as §5, §2, §3, §4

[4] = tested on: divarinic acid; assay: MPT fusions with GPS1.1 vs unfused MPTs, DVA feed (Example 9, Table 11); format: cell-based, Yarrowia; conditions: 2 mM divarinic acid
Protocol: as §1, with “pCL-SE-0337.MPT21,” for “pCL-SE-0337.MPT21, pCL-SE-0337.MPT26, and pCL-SE-0337.MPT31”, “divarinic” for “olivetolic”, “quenched” for “quenched with equal volume of ethanol”, “CBGVA” for “CBGA”, “FCBGVA.” for “FCBGA.”
as §2, §3, §4

[5] = tested on: olivetolic acid; assay: Fusions of different GPSs with MPT4, in vivo assay (Example 7); format: cell-based, Yarrowia; conditions: 1 mM olivetolic acid, 72 h quench; for CBGA / FCBGA: 2% glycerol, strain sCL-SE-0128; for CBGA/FCBGA: product ratio
Protocol: As described below, plasmids pCL-SE-0337, 0406, 0452 and 0453 were transformed into strain sCL-SE-0128. Multiple colonies per transformation were precultured for 24 h in YNB containing glycerol (2%), casamino acids (0.5%), and MES (100 mM pH 6.5). Pre-culture was used to inoculate assay medium comprised of YNB containing glycerol (2%), casamino acids (0.5%), MES (100 mM pH 6.5), and olivetolic acid (1 mM). Cultures were quenched after 72 h total growth and assayed for CBGA and F-CBGA. Averages and standard deviations were calculated from replicates.
However, sCL-SE-0128 expresses HMGR and GPS1.1 to increase intracellular GPP levels for prenylation of OA to CBGA. The plasmids that were transformed contain a gene expressing a fusion between two different GPSs and a prenyl-transferase. The same linker is used for all constructs. […] Additionally, as illustrated by GPS2 (pCL-SE-0453), certain GPS-MPT combinations result in very high CBGA/ FCBGA ratios.
as §2, §3, §4

[6] = 2% glucose, quenched after 48 h, strain sCL-SE-0128

Row | Molecule | CBGA [1] | FCBGA [1] | CBGA/FCBGA [1] | CBGA [2] | CBGA/FCBGA [2] | CBGVA [3] | CBGVA/FCBGVA [3] | CBGVA [4, 6] | FCBGVA [4, 6] | CBGVA/FCB ([4]; 48 h, product ratio) | CBGA [5] | FCBGA [5] | CBGA/FCBGA [5]
1 | B1 | 61 ± 5 µM | 14 ± 1 µM | 4.4 | 261 ± 62 µM | 4.5 | 620 ± 134 µM | 13.7 |  |  |  |  |  | 
2 | B2 | 40 ± 12 µM | 3 ± 2 µM | 13.4 | 175 ± 63 µM | 13.9 | 260 ± 79 µM | 22.6 |  |  |  |  |  | 
3 | B3 | 109 ± 27 µM | 43 ± 10 µM | 2.6 | 310 ± 11 µM | 3.1 | 647 ± 45 µM | 6.0 | 9 ± 3 µM | 1 ± 1 µM | 10.8 |  |  | 
4 | B4 |  |  |  |  |  |  |  |  |  |  | 255 ± 22 µM | 41 ± 3 µM | 6.2
5 | B5 |  |  |  |  |  |  |  |  |  |  | 282 ± 69 µM | 11 ± 2 µM | 26.8
